From patent publication US20240343800A1 (Merck KGaA, published 2024)

Experiments:
human ROR1 (on cells) [1] = target: T1, human ROR1 (on cells) (human, UniProt Q01973 30-937); assay: cell-based or functional assay
human ROR1 (on cells) [2] = target: T1, human ROR1 (on cells); assay: cell-based or functional assay; remark: listed apart in the source
human ROR1 (on cells) [3] = target: T1, human ROR1 (on cells); assay: cell-based or functional assay; remark: listed apart in the source
human ROR1 (on cells) [4] = target: T1, human ROR1 (on cells); assay: cell-based or functional assay; remark: listed apart in the source
[5] = target: T2, human CD3 (on Jurkat T cells or human CD8+ T cells) (human, UniProt P07766 23-207; P09693 23-182; P04234 22-171; P20963 22-164); assay: flow cytometry, human CD8+ T cells
T2 construct: Entries are printed with signal peptides; also called huCD3; CD3ε
Procedure: (§1) After 15-minutes of incubation at room temperature, the cells were washed twice with 200 μL of PBS by centrifugation at 500×g for 5 minutes at room temperature and resuspended in […] of 10% goat serum in BD staining buffer (BD Biosciences, Cat No: 554657). […] The plates were then covered with foil to avoid direct light and incubated for 60 minutes at 4° C. […] After incubating for 30 minutes at 4° C., the cells were washed twice with 200 μL of PBS by centrifugation at 500×g for 5 minutes at room temperature and resuspended into 100 μL of fixation buffer (BioLegend, Cat No: 420801). The samples were then analyzed on a flow cytometer for binding signal using FlowJo software. ROR and CD3 binding EC₅₀s (concentration vs mean fluorescence intensity (MFI)) for reference molecules and test bispecific TCEs were obtained using 4-parameter non-linear regression curve fitting in GraphPad Prism.

[6] = target: T3, cynomolgus CD3 (on cynomolgus pan-T cells) (cynomolgus, UniProt Q95LI5 22-198); assay: flow cytometry, cynomolgus pan-T cells
T3 construct: whole, on cells
Procedure: as §1

human ROR1 (on cells) [7] = target: T1, human ROR1 (on cells); assay: flow cytometry, ROR1+ MDA-MB-231 cells
Procedure: as §1

[8] = target: T4, mouse ROR1 (on 4T1 cells engineered to overexpress it) (mouse, UniProt Q9Z139 30-937); assay: flow cytometry, 4T1 cells overexpressing mouse ROR1
T4 construct: whole, on cells; also called muROR1; mROR1
Procedure: as §1

[9] = target: T4, mouse ROR1 (on 4T1 cells engineered to …); assay: flow cytometry, 4T1-muROR1 cells; reference: 82H02 TCE #4
Procedure: as §1

human ROR1 (on cells) [10] = target: T1, human ROR1 (on cells); assay: flow cytometry, MDA-MB-231 cells; reference: 82H02 TCE #4
[11] = target: T4, mouse ROR1 (on 4T1 cells engineered to …); assay: flow cytometry; reference: human ROR1 on MDA-MB-231 cells
[12] = target: T2, human CD3 (on Jurkat T cells or human …); assay: flow cytometry, Jurkat T cells
Procedure: as §1, with “After washing twice with 200 μL of phosphate buffered saline (PBS) by centrifugation at 500×g for 5 minutes at room temperature, the cells were resuspended in 100 μL of Live/Dead fixable green working buffer (ThermoFisher Scientific, Cat No: L23101; one vial of Live/Dead fixable green powder was dissolved into 50 μL of DMSO and 1 μL of dissolved Live/Dead fixable green was added to 1 mL of PBS to prepare the working buffer). After 15-minutes” for “After 15-minutes”

[13] = target: T5, chimeric CD3ε of human CD3 knock-in C57BL/6 mice (ectodomain of human CD3, transmembrane and cytosolic … (human; mouse, UniProt P07766 23-126; P22646 109-189); assay: flow cytometry, T cells of huCD3 knock-in C57BL/6 mice
T5 construct: extracellular domain;domain: transmembrane and cytosolic domains; On T cells isolated from the knock-in mice; also called human/mouse chimeric CD3; huCD3 knock-in
Procedure: (§2) The plates were then covered with foil to avoid direct light and incubated for 60 minutes at 4° C. […] After incubating for 30 minutes at 4° C., the cells were washed twice with 200 μL of PBS by centrifugation at 500×g for 5 minutes at room temperature and resuspended into 100 μL of fixation buffer (BioLegend, Cat No: 420801). The samples were then analyzed on a flow cytometer for binding signal using FlowJo software. ROR and CD3 binding EC₅₀s (concentration vs mean fluorescence intensity (MFI)) for reference molecules and test bispecific TCEs were obtained using 4-parameter non-linear regression curve fitting in GraphPad Prism.

[14] = target: T2, human CD3 (on Jurkat T cells or human …); assay: flow cytometry; reference: 69A02 and 82H02 TCEs in Format 1A
Procedure: as §2

[15] = target: T2, human CD3 (on Jurkat T cells or human …); assay: flow cytometry; reference: 69A02 and 82H02 TCEs in Format 1B
Procedure: as §2

[16] = target: T2, human CD3 (on Jurkat T cells or human …); assay: flow cytometry, human CD8+ T cells; reference: 82H02 TCE #1 and #3
Procedure: as §1

T2 sequence (P07766 23-207 limits assumed, chain 1 of 4): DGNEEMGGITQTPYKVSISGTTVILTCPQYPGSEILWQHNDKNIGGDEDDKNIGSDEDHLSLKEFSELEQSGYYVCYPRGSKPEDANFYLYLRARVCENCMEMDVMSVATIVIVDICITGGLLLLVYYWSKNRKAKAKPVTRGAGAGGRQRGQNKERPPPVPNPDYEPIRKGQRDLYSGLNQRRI
T2 sequence (P09693 23-182 limits assumed, chain 2 of 4): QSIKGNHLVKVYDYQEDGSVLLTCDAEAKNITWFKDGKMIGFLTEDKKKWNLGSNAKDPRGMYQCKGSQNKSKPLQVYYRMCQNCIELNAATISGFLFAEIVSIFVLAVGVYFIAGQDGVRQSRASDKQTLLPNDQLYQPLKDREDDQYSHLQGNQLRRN
T2 sequence (P04234 22-171 limits assumed, chain 3 of 4): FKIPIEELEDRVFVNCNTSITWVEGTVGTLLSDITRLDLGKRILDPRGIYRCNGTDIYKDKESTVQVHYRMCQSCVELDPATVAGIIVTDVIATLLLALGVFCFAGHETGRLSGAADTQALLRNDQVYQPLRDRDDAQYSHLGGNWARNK
T2 sequence (P20963 22-164 limits assumed, chain 4 of 4): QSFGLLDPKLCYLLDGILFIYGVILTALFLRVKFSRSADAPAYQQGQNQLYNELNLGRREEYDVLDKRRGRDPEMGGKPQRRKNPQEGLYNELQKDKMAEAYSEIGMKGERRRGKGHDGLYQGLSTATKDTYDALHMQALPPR
T3 sequence (Q95LI5 22-198): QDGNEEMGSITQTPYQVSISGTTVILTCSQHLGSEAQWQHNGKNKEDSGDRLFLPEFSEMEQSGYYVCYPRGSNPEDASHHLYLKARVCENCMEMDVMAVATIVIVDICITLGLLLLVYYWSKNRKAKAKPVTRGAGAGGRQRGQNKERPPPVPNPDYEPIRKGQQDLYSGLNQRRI
T5 sequence (P07766 other isoform, or with tags, fused parts or gaps mutant): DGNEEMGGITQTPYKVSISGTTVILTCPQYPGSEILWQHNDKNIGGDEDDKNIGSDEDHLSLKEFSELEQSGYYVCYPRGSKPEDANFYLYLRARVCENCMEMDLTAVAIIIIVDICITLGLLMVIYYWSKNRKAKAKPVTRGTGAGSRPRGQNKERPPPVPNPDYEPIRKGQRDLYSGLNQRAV

B1: 82H02 TCE #3 (sequence optimized 82H02 bispecific TCE in Format 1A, low ROR1 / high CD3 affinity) (bispecific antibody)
heavy 1: EVQLVESGGGLVQPGGSLKLSCAASGFTFNTYAMNWVRQASGKGLEWVGRIRSKYNNYATYYADSVKGRFTISRDDSKNTLYLQMNSLKTEDTAVYYCVRHGNFGASYVSWFAYWGQGTMVTVSSASTKGPSVFPLAPSSKSTSGGTAALGCLVKDYFPEPVTVSWNSGALTSGVHTFPAVLQSSGLYSLSSVVTVPSSSLGTQTYICNVNHKPSNTKVDKKVEPKSCDKTHTCPPCPAPEAAGGPSVFLFPPKPKDTLMISRTPEVTCVVVDVSHEDPEVKFNWYVDGVEVHNAKTKPREEQYNSTYRVVSVLTVLHQDWLNGKEYKCKVSNKALGAPIEKTISKAKGQPFRPEVHLLPPSREEMTKNQVSLTCLARGFYPKDIAVEWESNGQPENNYKTTPSRQEPSQGTTTFAVTSKLTVDKSRWQQGNVFSCSVMHEALHNHYTQKTISLSPGK
heavy 2: EIVLTQSPATLSLSPGERATLSCRASQSVSSYLAWYQQKPGQAPRLLIYDASNRATGIPARFSGSGSGTDFTLTISSLEPEDFAVYYCQQRSNWPPFTFGQGTRLEIKGGGGSGGGGSGGGGSGGGGSEVQLLESGGGLVQPGGSLRLSCAASGFTFTSYAMSWVRQAPGKGLEWVSTISGSGGGTYYTDSVKGRFTISRDNSKNTLYLQMNSLRAEDTAVYYCAQGSSIFDYWGQGTLVTVSSEPKSSDKTHTCPPCPAPEAAGGPSVFLFPPKPKDTLMISRTPEVTCVVVDVSHEDPEVKFNWYVDGVEVHNAKTKPREEQYNSTYRVVSVLTVLHQDWLNGKEYKCKVSNKALGAPIEKTISKAKGQPREPQVYTLPPPSEELALNELVTLTCLVKGFYPSDIAVEWLQGSQELPREKYLTWAPVLDSDGSFFLYSILRVAAEDWKKGDTFSCSVMHEALHNHYTQKSLDRSPGKGGGGSGGGGSGGGGSGGGGSEIVLTQSPATLSLSPGERATLSCRASQSVSSYLAWYQQKPGQAPRLLIYDASNRATGIPARFSGSGSGTDFTLTISSLEPEDFAVYYCQQRSNWPPFTFGQGTRLEIKGGGGSGGGGSGGGGSGGGGSEVQLLESGGGLVQPGGSLRLSCAASGFTFTSYAMSWVRQAPGKGLEWVSTISGSGGGTYYTDSVKGRFTISRDNSKNTLYLQMNSLRAEDTAVYYCAQGSSIFDYWGQGTLVTVSS
light: QAVVTQEPSLTVSPGGTVTLTCRSSTGAVTTSNYANWVQQKPGQAPRGLIGGTNKRAPGTPARFSGSLLGGKAALTLSGVQPEDEAEYYCALWYSNLWVFGGGTKLTVLGQPKAAPSVTLFPPSSEELQANKATLVCLISDFYPGAVTVAWKADSSPVKAGVETTTPSKQSNNKYAASSYLSLTPEQWKSHRSYSCQVTHEGSTVEKTVAPTECS
notes: also called 82H02 #3; 82H02 VL1.06x1F3.5-VH1.03
TDCC EC50, PBMCs: MDA-MB-231 (human ROR1 (on cells) [1]): 148 nM
IFNγ release EC50, PBMCs: MDA-MB-231 (human ROR1 (on cells) [2]): 425 nM
Max IFNγ, PBMCs: MDA-MB-231 (human ROR1 (on cells) [2]): 881 pg/mL
TDCC AUC, PBMCs: MDA-MB-231-0.2 (human ROR1 (on cells) [3]): 31300
TDCC AUC, PBMCs: MDA-MB-231-0.4 (human ROR1 (on cells) [3]): 44800
TDCC AUC, PBMCs: MDA-MB-231-0.6 (human ROR1 (on cells) [3]): 51000
TDCC AUC, PBMCs: MDA-MB-231-1.3 (human ROR1 (on cells) [3]): 61700
TDCC AUC, PBMCs: MDA-MB-231-7 (human ROR1 (on cells) [3]): 71400
TDCC EC50, PBMCs: MDA-MB-231-0.2 (human ROR1 (on cells) [3]): 0.0181 nM
TDCC EC50, PBMCs: MDA-MB-231-0.4 (human ROR1 (on cells) [3]): 0.0153 nM
TDCC EC50, PBMCs: MDA-MB-231-0.6 (human ROR1 (on cells) [3]): 0.0138 nM
TDCC EC50, PBMCs: MDA-MB-231-1.3 (human ROR1 (on cells) [3]): 0.0102 nM
TDCC EC50, PBMCs: MDA-MB-231-7 (human ROR1 (on cells) [3]): 0.00546 nM
TDCC Emax, PBMCs: MDA-MB-231-0.2 (human ROR1 (on cells) [3]): 33.1%
TDCC Emax, PBMCs: MDA-MB-231-0.4 (human ROR1 (on cells) [3]): 47.8%
TDCC Emax, PBMCs: MDA-MB-231-0.6 (human ROR1 (on cells) [3]): 53.8%
TDCC Emax, PBMCs: MDA-MB-231-1.3 (human ROR1 (on cells) [3]): 63.2%
TDCC Emax, PBMCs: MDA-MB-231-7 (human ROR1 (on cells) [3]): 72.8%
IFNγ release AUC, PBMCs: MDA-MB-231-0.2 (human ROR1 (on cells) [4]): 1.29e+06
IFNγ release AUC, PBMCs: MDA-MB-231-0.4 (human ROR1 (on cells) [4]): 1.68e+06
IFNγ release AUC, PBMCs: MDA-MB-231-0.6 (human ROR1 (on cells) [4]): 1.62e+06
IFNγ release AUC, PBMCs: MDA-MB-231-1.3 (human ROR1 (on cells) [4]): 4.32e+06
IFNγ release AUC, PBMCs: MDA-MB-231-7 (human ROR1 (on cells) [4]): 4.43e+06
IFNγ release EC50, PBMCs: MDA-MB-231-0.2 (human ROR1 (on cells) [4]): 0.202 nM
IFNγ release EC50, PBMCs: MDA-MB-231-0.4 (human ROR1 (on cells) [4]): 0.167 nM
IFNγ release EC50, PBMCs: MDA-MB-231-0.6 (human ROR1 (on cells) [4]): 0.107 nM
IFNγ release EC50, PBMCs: MDA-MB-231-1.3 (human ROR1 (on cells) [4]): 0.0308 nM
IFNγ release EC50, PBMCs: MDA-MB-231-7 (human ROR1 (on cells) [4]): 0.0271 nM
IFNγ release Emax, PBMCs: MDA-MB-231-0.2 (human ROR1 (on cells) [4]): 1830%
IFNγ release Emax, PBMCs: MDA-MB-231-0.4 (human ROR1 (on cells) [4]): 2250%
IFNγ release Emax, PBMCs: MDA-MB-231-0.6 (human ROR1 (on cells) [4]): 3160%
IFNγ release Emax, PBMCs: MDA-MB-231-1.3 (human ROR1 (on cells) [4]): 4680%
IFNγ release Emax, PBMCs: MDA-MB-231-7 (human ROR1 (on cells) [4]): 4730%
EC50 [5]: 3 nM
EC50 [6]: 4.4 nM
EC50 (human ROR1 (on cells) [7]): 211 nM
EC50 [8]: 1040 nM
fold difference in ROR1 binding affinity against 82H02 TCE #4 [9]: ~2 fold
fold difference in ROR1 binding affinity against 82H02 TCE #4 (human ROR1 (on cells) [10]): ~3 fold
fold difference in apparent ROR1 binding affinity between human and mouse ROR1 [11]: ~5 fold

B2: bispecific reference T cell-binder (bispecific antibody)
light: ELVLTQSPSVSAALGSPAKITCTLSSAHKTDTIDWYQQLQGEAPRYLMQVQSDGSYTKRPGVPDRFSGSSSGADRYLIIPSVQADDEADYYCGADYIGGYVFGGGTQLTVLGQPKAAPSVTLFPPSSEELQANKATLVCLISDFYPGAVTVAWKADSSPVKAGVETTTPSKQSNNKYAASSYLSLTPEQWKSHKSYSCQVTHEGSTVEKTVAPTECS
heavy 1: not shown
heavy 2: QEQLVESGGRLVTPGGSLTLSCKASGFDFSAYYMSWVRQAPGKGLEWIATIYPSSGKTYYATWVNGRFTISSDNAQNTVDLQMNSLTAADRATYFCARDSYADDGALFNIWGPGTLVTISSASTKGPSVFPLAPSSKSTSGGTAALGCLVKDYFPEPVTVSWNSGALTSGVHTFPAVLQSSGLYSLSSVVTVPSSSLGTQTYICNVNHKPSNTKVDKKVEPKSCDKTHTCPPCPAPEAAGGPSVFLFPPKPKDTLMISRTPEVTCVVVDVSHEDPEVKFNWYVDGVEVHNAKTKPREEQYNSTYRVVSVLTVLHQDWLNGKEYKCKVSNKALGAPIEKTISKAKGQPREPQVCTLPPSRDELTKNQVSLSCAVKGFYPSDIAVEWESNGQPENNYKTTPPVLDSDGSFFLVSKLTVDKSRWQQGNVFSCSVMHEALHNHYTQKSLSLSPGK
chain: QAVVTQEPSLTVSPGGTVTLTCGSSTGAVTTSNYANWVQEKPGQAFRGLIGGTNKRAPGTPARFSGSLLGGKAALTLSGAQPEDEAEYYCALWYSNLWVFGGGTKLTVLSSASTKGPSVFPLAPSSKSTSGGTAALGCLVKDYFPEPVTVSWNSGALTSGVHTFPAVLQSSGLYSLSSVVTVPSSSLGTQTYICNVNHKPSNTKVDKKVEPKSC
notes: ROR1 x CD3 bispecific of four polypeptides
EC50 [12]: 157 nM
EC50 [5]: 266 nM
EC50 [13]: 259 nM
fold lower apparent binding affinity [14]: ~15 fold
fold lower apparent binding affinity [15]: ~4 fold
fold lower affinity [16]: ~100 fold
